# According to article PMC6927765:
# Where two headings read alike, the source gives them in different places.
# What was measured:
# Assay in all cases: SPR
# [1] = target: CD3/CD20 mG2aH4 bispecific antibody (not stated | mouse)
# [2] = target: CD3 mG2a (not stated | mouse)
# [3] = target: CD3 mG1 D265A (not stated | mouse)
# [4] = target: CD3 mG2a D265A (not stated | mouse)
# [5] = target: CD3/CD20 mG1KD D265A bispecific antibody (not stated | mouse)
# [6] = target: CD3/CD20 mG2aH4 bispecific antibody (not stated | mouse); remark: listed apart in the source
# [7] = target: CD3 mG2a (not stated | mouse); remark: listed apart in the source
Kd [2] [nM],Kd [6] [nM],Kd [7] [nM],Molecule,also measured
1570,,,Mouse Fc gamma receptor FCGR2 (from UniProt P08101 30-330),Kd [1]: 1990 nM
320,,,Mouse FcRn (from UniProt Q61559 22-365; P01887 21-119) (receptor),Kd [3]: 640 nM; Kd [4]: 310 nM; Kd [5]: 670 nM
,1030,625,Mouse Fc gamma receptor FCGR3 (receptor) ALPKAVVKLDPPWIQVLKEDMVTLMCEGTHNPGNSSTQWFHNGRSIRSQVQASYTFKATVNDSGEYRCQMEQTRLSDPVDLGVISDWLLLQTPQRVFLEGETITLRCHSWRNKLLNRISFFHNEKSVRYHHYKSNFSIPKANHSHSGDYYCKGSLGSTQHQSKPVTITVQDPATTSSISLVWYHTAFSLVMCLLFAVDTGLYFYVRRNLQTPREYWRKSLSIRKHQAPQDK,
,39,18,Mouse Fc gamma receptor FCGR4 (receptor) GLQKAVVNLDPKWVRVLEEDSVTLRCQGTFSPEDNSIKWFHNESLIPHQDANYVIQSARVKDSGMYRCQTALSTISDPVQLEVHMGWLLLQTTKWLFQEGDPIHLRCHSWQNRPVRKVTYLQNGKGKKYFHENSELLIPKATHNDSGSYFCRGLIGHNNKSSASFRISLGDPGSPSMFPPWHQITFCLLIGLLFAIDTVLYFSVRRGLQSPVADYEEPKIQWSKEPQDK,
,33,21,Mouse Fc gamma receptor FCGR1 (receptor) EVVNATKAVITLQPPWVSIFQKENVTLWCEGPHLPGDSSTQWFINGTAVQISTPSYSIPEASFQDSGEYRCQIGSSMPSDPVQLQIHNDWLLLQASRRVLTEGEPLALRCHGWKNKLVYNVVFYRNGKSFQFSSDSEVAILKTNLSHSGIYHCSGTGRHRYTSAGVSITVKELFTTPVLRASVSSPFPEGSLVTLNCETNLLLQRPGLQLHFSFYVGSKILEYRNTSSEYHIARAEREDAGFYWCEVATEDSSVLKRSPELELQVLGPQSSAPVWFHILFYLSVGIMFSLNTVLYVKIHRLQREKKYNLEVPLVSEQGKKANSFQQVRSDGVYEEVTATASQTTPKEAPDGPRSSVGDCGPEQPEPLPPSDSTGAQTSQS,
